Publication PMC9812531 (Nature structural & molecular biology, 2021)
Like-named read-outs stand apart in the source and are kept apart here. Blank lines part the entries; values can stand above or below the binder they belong to.

Columns and labels:
Experiment in all cases: cryo-EM structure
human SPTLC2 = target: T1, human SPTLC2 (human, UniProt O15270 1-562, pyridoxal 5'-phosphate (PLP) in aldimine linkage to Lys379)
T1 sequence (looked up): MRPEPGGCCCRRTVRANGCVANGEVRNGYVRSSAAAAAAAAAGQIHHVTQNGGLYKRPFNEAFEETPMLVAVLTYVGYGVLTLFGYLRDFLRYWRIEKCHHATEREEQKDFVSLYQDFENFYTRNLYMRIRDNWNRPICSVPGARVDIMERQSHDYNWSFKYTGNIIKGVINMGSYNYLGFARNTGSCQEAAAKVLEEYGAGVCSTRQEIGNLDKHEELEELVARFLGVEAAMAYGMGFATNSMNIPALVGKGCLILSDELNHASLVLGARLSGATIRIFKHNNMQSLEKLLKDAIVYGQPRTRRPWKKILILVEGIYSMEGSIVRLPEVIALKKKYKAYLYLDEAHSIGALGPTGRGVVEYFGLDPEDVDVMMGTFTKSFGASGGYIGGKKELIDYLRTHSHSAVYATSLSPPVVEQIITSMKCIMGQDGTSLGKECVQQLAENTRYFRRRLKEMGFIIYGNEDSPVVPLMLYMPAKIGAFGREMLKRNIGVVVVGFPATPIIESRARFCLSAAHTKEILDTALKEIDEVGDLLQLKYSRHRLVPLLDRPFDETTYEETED

cryo-EM structure [1] = target: the molecule itself
cryo-EM structure [2] = target: the molecule itself; remark: listed apart in the source

- stoichiometry N (human SPTLC2): 1
B1: human ssSPTa (natural protein)
chain: MAGMALARAWKQMSWFYYQYLLVTALYMLEPWERTVFNSMLVSIVGMALYTGYVFMPQHIMAILHYFEIVQ

- stoichiometry N (human SPTLC2): 1
B2: human SPTLC1 (natural protein)
chain: MATATEQWVLVEMVQALYEAPAYHLILEGILILWIIRLLFSKTYKLQERSDLTVKEKEELIEEWQPEPLVPPVPKDHPALNYNIVSGPPSHKTVVNGKECINFASFNFLGLLDNPRVKAAALASLKKYGVGTCGPRGFYGTFDVHLDLEDRLAKFMKTEEAIIYSYGFATIASAIPAYSKRGDIVFVDRAACFAIQKGLQASRSDIKLFKHNDMADLERLLKEQEIEDQKNPRKARVTRRFIVVEGLYMNTGTICPLPELVKLKYKYKARIFLEESLSFGVLGEHGRGVTEHYGINIDDIDLISANMENALASIGGFCCGRSFVIDHQRLSGQGYCFSASLPPLLAAAAIEALNIMEENPGIFAVLKEKCGQIHKALQGISGLKVVGESLSPAFHLQLEESTGSREQDVRLLQEIVDQCMNRSIALTQARYLEKEEKCLPPPSIRVVVTVEQTEEELERAASTIKEVAQAVLL
- binding result (cryo-EM structure [1]): binds

B3: human SPT complex (SPTLC1-SPTLC2-ssSPTa), one protomer (complex)
chain 1: MATATEQWVLVEMVQALYEAPAYHLILEGILILWIIRLLFSKTYKLQERSDLTVKEKEELIEEWQPEPLVPPVPKDHPALNYNIVSGPPSHKTVVNGKECINFASFNFLGLLDNPRVKAAALASLKKYGVGTCGPRGFYGTFDVHLDLEDRLAKFMKTEEAIIYSYGFATIASAIPAYSKRGDIVFVDRAACFAIQKGLQASRSDIKLFKHNDMADLERLLKEQEIEDQKNPRKARVTRRFIVVEGLYMNTGTICPLPELVKLKYKYKARIFLEESLSFGVLGEHGRGVTEHYGINIDDIDLISANMENALASIGGFCCGRSFVIDHQRLSGQGYCFSASLPPLLAAAAIEALNIMEENPGIFAVLKEKCGQIHKALQGISGLKVVGESLSPAFHLQLEESTGSREQDVRLLQEIVDQCMNRSIALTQARYLEKEEKCLPPPSIRVVVTVEQTEEELERAASTIKEVAQAVLL
chain 2: MRPEPGGCCCRRTVRANGCVANGEVRNGYVRSSAAAAAAAAAGQIHHVTQNGGLYKRPFNEAFEETPMLVAVLTYVGYGVLTLFGYLRDFLRYWRIEKCHHATEREEQKDFVSLYQDFENFYTRNLYMRIRDNWNRPICSVPGARVDIMERQSHDYNWSFKYTGNIIKGVINMGSYNYLGFARNTGSCQEAAAKVLEEYGAGVCSTRQEIGNLDKHEELEELVARFLGVEAAMAYGMGFATNSMNIPALVGKGCLILSDELNHASLVLGARLSGATIRIFKHNNMQSLEKLLKDAIVYGQPRTRRPWKKILILVEGIYSMEGSIVRLPEVIALKKKYKAYLYLDEAHSIGALGPTGRGVVEYFGLDPEDVDVMMGTFTKSFGASGGYIGGKKELIDYLRTHSHSAVYATSLSPPVVEQIITSMKCIMGQDGTSLGKECVQQLAENTRYFRRRLKEMGFIIYGNEDSPVVPLMLYMPAKIGAFGREMLKRNIGVVVVGFPATPIIESRARFCLSAAHTKEILDTALKEIDEVGDLLQLKYSRHRLVPLLDRPFDETTYEETED
chain 3: MAGMALARAWKQMSWFYYQYLLVTALYMLEPWERTVFNSMLVSIVGMALYTGYVFMPQHIMAILHYFEIVQ
modifications: pyridoxal 5'-phosphate (PLP) in aldimine linkage to Lys379
- stoichiometry N (cryo-EM structure [2]): 2

B4: human SPT-ORMDL3 complex (SPTLC1-SPTLC2-ssSPTa-ORMDL3), one protomer (complex)
chain 1: MATATEQWVLVEMVQALYEAPAYHLILEGILILWIIRLLFSKTYKLQERSDLTVKEKEELIEEWQPEPLVPPVPKDHPALNYNIVSGPPSHKTVVNGKECINFASFNFLGLLDNPRVKAAALASLKKYGVGTCGPRGFYGTFDVHLDLEDRLAKFMKTEEAIIYSYGFATIASAIPAYSKRGDIVFVDRAACFAIQKGLQASRSDIKLFKHNDMADLERLLKEQEIEDQKNPRKARVTRRFIVVEGLYMNTGTICPLPELVKLKYKYKARIFLEESLSFGVLGEHGRGVTEHYGINIDDIDLISANMENALASIGGFCCGRSFVIDHQRLSGQGYCFSASLPPLLAAAAIEALNIMEENPGIFAVLKEKCGQIHKALQGISGLKVVGESLSPAFHLQLEESTGSREQDVRLLQEIVDQCMNRSIALTQARYLEKEEKCLPPPSIRVVVTVEQTEEELERAASTIKEVAQAVLL
chain 2: MRPEPGGCCCRRTVRANGCVANGEVRNGYVRSSAAAAAAAAAGQIHHVTQNGGLYKRPFNEAFEETPMLVAVLTYVGYGVLTLFGYLRDFLRYWRIEKCHHATEREEQKDFVSLYQDFENFYTRNLYMRIRDNWNRPICSVPGARVDIMERQSHDYNWSFKYTGNIIKGVINMGSYNYLGFARNTGSCQEAAAKVLEEYGAGVCSTRQEIGNLDKHEELEELVARFLGVEAAMAYGMGFATNSMNIPALVGKGCLILSDELNHASLVLGARLSGATIRIFKHNNMQSLEKLLKDAIVYGQPRTRRPWKKILILVEGIYSMEGSIVRLPEVIALKKKYKAYLYLDEAHSIGALGPTGRGVVEYFGLDPEDVDVMMGTFTKSFGASGGYIGGKKELIDYLRTHSHSAVYATSLSPPVVEQIITSMKCIMGQDGTSLGKECVQQLAENTRYFRRRLKEMGFIIYGNEDSPVVPLMLYMPAKIGAFGREMLKRNIGVVVVGFPATPIIESRARFCLSAAHTKEILDTALKEIDEVGDLLQLKYSRHRLVPLLDRPFDETTYEETED
chain 3: MAGMALARAWKQMSWFYYQYLLVTALYMLEPWERTVFNSMLVSIVGMALYTGYVFMPQHIMAILHYFEIVQ
chain 4: MNVGTAHSEVNPNTRVMNSRGIWLSYVLAIGLLHIVLLSIPFVSVPVVWTLTNLIHNMGMYIFLHTVKGTPFETPDQGKARLLTHWEQMDYGVQFTASRKFLTITPIVLYFLTSFYTKYDQIHFVLNTVSLMSVLIPKLPQLHGVRIFGINKY
modifications: pyridoxal 5'-phosphate (PLP) in aldimine linkage to Lys379
- stoichiometry N (cryo-EM structure [1]): 2
